Data reported in paper PMC7736792.

Test system: p44 (in p44/p62 complex);p62 (in p44/p62 complex) (Chaetomium thermophilum;Chaetomium thermophilum)
Assay: fluorescence anisotropy
Conditions: 20 mM HEPES pH 7.5, 30 mM KCl, 5 mM MgCl2, 1 mM TCEP, 5 nM DNA, room temperature

Sequence | Kd [nM]
GACTACGTACTGTTACGGCTCCATCTCTACCGCAATCAGGCCAGATCTGC / GCAGATCTGGCCTGATTGCGGTAGCGATGGAGCCGTAACAGTACGTAGTC [undamaged dsDNA 50 bp] | 1180
GACTACGTACTGTTACGGCTCCATCTCTACCGCAATCAGGCCAGATCTGC [undamaged ssDNA 50 nt] | 840
TTTTTTTTTTTTTTTCCCGGCCATGCGAAGCATGGCCGGGTTTTT [open fork hairpin] | 210
